Test results published in the domain aggregation screens of Martell et al. (2025).

test: soluble fraction after stress (log2 fold change); higher = more stays soluble; pooled small domains, quantitative proteomics; conditions: stress: 50 degC
Summary of the method: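 Quantitative proteomics served as the high-throughput read-out for pooled custom libraries of small protein domains. Each was stressed at 50°C. Aggregation propensity is expressed as the base-two log fold change in soluble protein after stress. A higher value means a larger share of the protein remains in solution.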

Compared with “HMGQGAASAPLRELGVDPVSEKQMVLKDGRFGPYVTDGETNASLRKGDEVETITDERASELLQMRRDAGPS”, “HMGVSEIGSPAWMESKLVTLASYEGSLDGLRTLWGGVAQHRARIPVESWDRLFAAKEEGKARLVKLGRT” is lower in “soluble fraction (log2)” value: -0.195 for the first, -1.19 for the second.

Going from “HMPMTDYQLIRSNRRTIALQITRDARVVVRAPLYASEADIRRFVESHRAWIESHLDRQRARTD” to “HMHPFELNTVTEGQLKRLPFLSDLQIRELLEYRSRYGKMLTLYELKNVEAFDLETISLLVPFIYISEI”, the “soluble fraction (log2)” value rises from -1.76 to -1.38.

Going from “HMASGLITEEQAKSKALAHAGLSASQVNFIWVKQDWEDGRRVYEVEFYTDDYQEYDYEIDARTGEILSFDY” to “HMVSSAEQQARDKESGMILVQEAGGPDKARALVEKMRQDIRNPALDGTRRQMLRGHVARIELALAELETG”, the “soluble fraction (log2)” value rises from -1.97 to 0.00436.

First: HMHHSGLRQSQFDEISRQIRSLLEMESLSLQELKTRMEDVPEEQLTKVVSYLLSEEIIRQENGRLQ
Second: HMHRTMFYLDVDLAEGQSVKMAVHEDDDPGELAARFADEHQLKSRAMEKLRSVIEENVRLHRRNQ
The “soluble fraction (log2)” value of the first is higher: -0.0768 for the first, -0.306 for the second.

Compared with “HMRPDDPYLVIGASREMGDEELKRHYRRLVAETHPDRGIARGLPAEAIAIATRRLAAINAAWDAIERERGL”, “HMGFDTSMNKYTIDDLLKLLELGSNPSQAEIVNKITNFNTIFVDNSGVIQFLNNIQDKLLDNFK” is lower in “soluble fraction (log2)” value: 0.035 for the first, -0.396 for the second.

Compared with “HMEEDPVIAAQRFLNIFRQLHIFTAAKRKEFDELLLKQPASVKGMFASLPGGSVLQEYVNNLEQNAG”, “HMSVTSIEGRVVYDENANKIGIAKQVGIDSTQSMVLVLTKNDGTEGSISWNNIKKIGEIILLGN” is lower in “soluble fraction (log2)” value: -0.137 for the first, -0.369 for the second.

First: HMPTPASGSSGYINATNVNFRTGPATSYKSISKLAKNTAVTILGTSGNWYKVTVGSLGKNGYVFATYVTVS
Second: HMQNNKITIYISGAVNRPGIVTIESDKRLYDAVELLGGTTKEADLNGVNLSVRLEDEQHYIIPKIGEA
The “soluble fraction (log2)” value of the first is lower: -0.556 for the first, -0.0996 for the second.

Going from “HMDAAEVEATARAMLRRSALNLLAQREQTAFELKQKLSRRFPEQAALLDEVIERLQEQGLQDDTR” to “HMSSIDLTARSGRAALKHRLSLLGYEFSKIELETLYVRFIELADEKKLLHDEDLIELVKEKN”, the “soluble fraction (log2)” value falls from -0.102 to -1.37.

First: HMNMAEQGISLDSEAGKARFVSQALPLLKQLPDGVFKQRMLNQLADRVEVTADFIAQQLAQLKAA
Second: HMQADKYKSYTATDFLKDKDFLRWQLFNGEEDMLFWGRVIEEYPALRSRVEEGIVLYKDNIR
The “soluble fraction (log2)” value of the first is higher: -0.079 for the first, -0.981 for the second.

Compared with “HMRSSNEAVSQRRDKILDYISATGRTSTEIVAKEFGVSVMTARRDLLYLMEKRLISKSSSGLFKVDNN”, “HMDLGTHMRLIVPTGMRVDHIVYESNGKNISVDHDRSISVRWNGEVVSIDVSPLPSRPDFDVLIYMSPK” is higher in “soluble fraction (log2)” value: -2.42 for the first, -0.0114 for the second.

Going from “HMRAVEGKRLKRLLRTNLIAIERDQILQYPLRKRPLAIVTRAVRATNPDAVIVNDAGDDVFARALDVLLAS” to “HMVNLLVTPLEELEINFRTLRALRKYNIYQLEDLLRFIKYNGFDALRIVPGMGIKSTEQLYEKLKDKNI”, the “soluble fraction (log2)” value rises from -1.34 to -0.236.

Compared with “HMKQDYYSILGVMRDASQEEIKRAYLDAAQRLHPDRNTSAGDTEMFLDVQQAYEVLSNPKRRAQYDATLP”, “HMLAVSVDKDGKVYIQDSETAVDAVTAKLRAISGNNSEIRIFVRGDADVNYGRIMEIMGVINAAGFRKVAL” is lower in “soluble fraction (log2)” value: 0.148 for the first, -0.467 for the second.

Compared with “HMARDSYNGVQRTISTLLGQGNYDRAYDVAVGARGQMSKQQWSDVAKRIYEVSGIKIDDSVKY”, “HMAAMDMFVKLDALDAELTEQLKALPAEPDDARVERGLALLTDYDHRIKALLTEIFGGENDFDKVL” is lower in “soluble fraction (log2)” value: 0.159 for the first, -2.4 for the second.

First: HMFANQLLLTRFDLNYIKSDVLSRQIDVLGIPIKKLTIEANNKSIWLQGTSQSLSKVRELIGIIDIRENA
Second: HMFDLDIEQIANDLKHGVMPNLYGLSLQDALYLLEAKGIRVKVAGSGSVVNQSIKTGAYVGSGSVLKLEL
The “soluble fraction (log2)” value of the first is lower: -3.1 for the first, -1.26 for the second.

Compared with “HMPGEATVPSVIGMTKAEAKAKLQASGFELGYSEFVASDKPKGEIVEQDPGAGETAKGGTEVNVKISDGS”, “HMLDGFEVGMTVMKKSGTEIGFTGWPSFADKDELPIIERIDTSDSTLLLKFKDMSWWIKASLVEPS” is lower in “soluble fraction (log2)” value: -0.0145 for the first, -1.62 for the second.

“HMASVLTAKLSEREVDVLNLLARGFTNADIAAQLHLSEGTVRNHVSTIFAKLDVNDRTQAAVIAIRHGL” and “HMVAREAYTTQNLTDVFSISRQAVEKRAKREGWQSVPRKGRGGGKLWVVSSMPAETRDLLASLLLRK” are within 0.2 log units of each other in “soluble fraction (log2)” value: -0.775 for the first, -0.609 for the second.

First: HMNKNQIGTNAGIVWKLLSDNVHWEYDKLKHASGLSDRDLNAAIGWLAREDKIDFDIDEQHDRLFL
Second: HMGGQYQVRPGETLNQIAARVRPSNMSLSETQKAIIQANPDIFKNGNPNLIFAGDILRIPTGNQI
The “soluble fraction (log2)” value of the first is lower: -0.395 for the first, 0.211 for the second.

First: HMPMTRILFLPDDRTILQFDSAEPAEDLVSAVNAGRWLPPEPYRSGFGLGLPENRLRASRQGALVVVMLS
Second: HMAVQPMDQVKAWLAEDNPADIKLLVPVLQKLDLLDYEQVRGEVADRAGVRKSLLDEAVKGN
The “soluble fraction (log2)” value of the first is lower: -0.967 for the first, 0.0999 for the second.

Going from “HMSAAPVGPWALSEFLDAVEKDSVERVTFDDAGKALVAVDADGGRHRVEILPSEGPEILAALRKHSVQFA” to “HMSTVIENVFKNFEVYEIKKGDTFYNIEKRFGVNRQELLVLNPELKEGLKLGMVLKIKEIIP”, the “soluble fraction (log2)” value falls from 0.0953 to -1.07.

Compared with “HMQYYITKIANYDQVSPNLLVRTAEGQYMVKTNADILDTDVTKLTEEEIRKDWGYLFENGFSELV”, “HMLKFGLSQRELQILALLPTDEPLSILAKSLFISESTLKTHLTHIYRKLGVKNRLQAINVARKAGLLK” is higher in “soluble fraction (log2)” value: -0.814 for the first, -0.283 for the second.

First: HMSQQEAQLNSLVKIYESMKPKDAARIFDTLDMDVLLDVVMRMKEARSAAVLAEMTPDRAKEVTLQLAD
Second: HMVSAEQNTLEFIKENVKEDVIEDDIEFYKSLLEDWSVEVDNSSKLLDPGNNNSLLAVIAYSIENEL
The “soluble fraction (log2)” value of the first is lower: -0.61 for the first, -0.0399 for the second.

“HMPESFSEMQKRTGVGEFSDDALSAKYVDSIDADVMSLDEYIMKVRGISLDDLEAERALRAR” and “HMNMLGSNIKYLRNRHKLSQQELSEKLGVPRSSLSDYERGHTQVGLDSLIKLADIFDVKIDDLLRSNLSHR” are within 0.2 log units of each other in “soluble fraction (log2)” value: 0.0325 for the first, -0.0552 for the second.

Going from “HMQQQLLHIVFGGELKDVTGIEFEDLSKMDFVGAFSNYKDAYDAWKSAAQRTVDHAEMRYFILHAHKLL” to “HMEHIEVDTSHIAVGSKVKHKAFGLGEITDKGNTYVFVKFDGQAIPKKFQFPGAFTQGFLTK”, the “soluble fraction (log2)” value rises from -5.48 to 0.144.

“HMGKAVTLEEARAIIQAKVPGASPDMIQIWEEHGDGRGRYEGELSYNNMKYEFEMDPKTGIIFDWNA” and “HMAVSGRGSIIGGVATVLDDFADSGKVWLEGEAWQARSSVPLKQDQEVVVRAMDGLVLVVEPVA” are within 0.2 log units of each other in “soluble fraction (log2)” value: -0.224 for the first, -0.198 for the second.

First: HMKQEFEMGLPNGVGEQMLAHAIEKFDVKLEHSEFGPKLIGTYEELEKAKVFLYEAIEARLNQLE
Second: HMTDYREILRLLSLGLSRTQIADSLNVSRTTVIHTLQRAVAQELDWQTAEGMSDRELVAKLFPV
The “soluble fraction (log2)” value of the first is higher: -0.0154 for the first, -3.47 for the second.

Going from “HMATAADLLQSATGVPRSDALLLLAKLLGVAKERLIAHPETVVSEKTQATFSDWIERVRGGFPTTYLLG” to “HMQLPDLDEIRQMRKRLDLSQRELAALAGVSQSLIAKIEKGSIDPSYDNVRKIFNAFENILKKRALE”, the “soluble fraction (log2)” value falls from -0.0115 to -0.255.

Compared with “HMNPNPYIVLGVDKSMPFGEIKKVYQRKRREFHPDSLVAKGLPDELLQKAQDKFIAIQEAYKSIEKNQV”, “HMTIDANAIEKMVLDLIGEHPNEWGRYRDGDKKVQGFFVGQIMKATSGQADGKIVNQILSQHAEA” is lower in “soluble fraction (log2)” value: 0.317 for the first, -0.115 for the second.

“HMVEIGENIKKLRKAKRMTQKEVANQLNVTPQTISKWERNISYPDLDMLVKLSQLFHISTDALL” and “HMLSVTLTVLPQQAGERLDAFAAAESTLSRSAAAKLIEDGQITVNGARAAKNYRLRAGDVIEIDEPEPI” are within 0.2 log units of each other in “soluble fraction (log2)” value: -0.0765 for the first, 0.00149 for the second.

“HMEALPELTDRQRQVYEFIEARIAEWGYPPTIREIGQHLGIKSTNGVADHLKALKRKGYLQQ” and “HMDPERLDQLQNPDPAVRREAIIALGRSKDLAALPELAKVYKNDPVPELRELARQAGRYIQQENRP” are within 0.2 log units of each other in “soluble fraction (log2)” value: -0.0721 for the first, 0.126 for the second.

“HMNNVDQLIEQYKTLPGGLLPLLHAIKHALGYIPESTVGSIAKGFNLSRAEVHGVISFYHDFNTQP” and “HMRPDSFEAGEAEAGSRLDRLLAARLGIPRNQVQQWIGGGRVTVDAEPVRASLVVRAGMRIAWDPPPPP” are within 0.2 log units of each other in “soluble fraction (log2)” value: 0.0707 for the first, -0.0768 for the second.

Going from “HMQVDENNINKRIDKYLSENTEYSRSTIQKMIDNGNITVNSKPTKSSYKLELNDIITIDNNFKE” to “HMKNKVTVPKVEGMDKEEAIQALNEVGLGYKAVMQSSDSVAEGKVISQGTAAGKKVDKNTQIIITVSGG”, the “soluble fraction (log2)” value falls from 0.369 to 0.00222.

Compared with “HMKYYIYQGVGASGELTKIAEVTDQKTYTVTGLQAKTTYRFAVSSYNGLRESTKSNIVTVTT”, “HMVVVMNADAEADEIKRVKWNLEQMLFRTQVIYGVKRIVIGAIGDQREVDLSEIEQMPKVDKIVRISK” is lower in “soluble fraction (log2)” value: -0.313 for the first, -1.4 for the second.

“HMDRSRAEIDLGHVETAIRTLAEGGMVQEYAIGGRSLKRYKMGELLQLKAELENEINMERRKEKMRQ” and “HMAVRTELLALPAGWHGDASRLSTALAALQGVREAVVIASEGVAYLKVHGHDWDRDGARELLQN” are within 0.2 log units of each other in “soluble fraction (log2)” value: 0.197 for the first, 0.00676 for the second.

Going from “HMRESDQSTVELSLERTIQEALMVNPRTSSVEEFSFEWGTGRVKVSFIVYSVDGEPFTVDSIIE” to “HMTPDLSEFKERLRQILPGEPIEVRTANDGIVLSGTVTSIAALDRALDLAERYAPDKVSNLLSVG”, the “soluble fraction (log2)” value rises from -2.27 to 0.0882.

Going from “HMSGLEDIKKKILEDAGIKKGSVKFVKVDKDYDDGIWKYEIDFVYDGKEYEYEIEVETGKILSRKTEKSD” to “HMEKSQIHLIHTRYVNPEQLVPILSMVIPAENIYVKSDSNLIIINGSSEMLREVESIVSKLDVPS”, the “soluble fraction (log2)” value rises from -0.317 to 0.0228.

First: HMSEEQLKAFLEKVQGDTSLQEKLKAAADANAVVEIAKEAGFSISADDLKNAQSELSEEELE
Second: HMGTPLYLLLAAEVRDRIATEQLAPHTAVPSERELAELHGVSRMTARQALALLESEGLVYRNPPRGTFVAE
The “soluble fraction (log2)” value of the first is higher: -0.0697 for the first, -0.85 for the second.

Compared with “HMNLGAHVYWRNHRAYGDFREYEDVGGGREALALPGSTWGTKDPRVAQALFAARLTEFQEARVGR”, “HMSIEIKTIDVKHADLFQLQDILRNLYPELNIVPDQRNNKLILQGKRELLVEAERLTLQLDTE” is higher in “soluble fraction (log2)” value: -1.05 for the first, 0.0556 for the second.

First: HMGDADDLSRELLQQGLSLKEAVADFERRYLQQAMQRHSSIASVSEALDVHFSTLWRKLVKYNLV
Second: HMDLFLVYQFIRRLATPFTEWKAHELGIIDDKGVQLKKRRDFTTREEKDAYGIFDIMITKLKRLIEKV
The “soluble fraction (log2)” value of the first is higher: -0.047 for the first, -0.255 for the second.
